Reference: PMC4661090 (FEBS letters, 2015)
Changes are numbered by the printed parent chain. Names may count otherwise.

Target: the molecule itself
Test: SEC

B1: thiostrepton resistance methyltransferase Tsr (wild type) (enzyme)
chain: MTELDTIANPSDPAVQRIIDVTKPSRSNIKTTLIEDVEPLMHSIAAGVEFIEVYGSDSSPFPSELLDLCGRQNIPVRLIDSSIVNQLFKGERKAKTFGIARVPRPARFGDIASRRGDVVVLDGVKIVGNIGAIVRTSLALGASGIILVDSDITSIADRRLQRASRGYVFSLPVVLSGREEAIAFIRDSGMQLMTLKADGDISVKELGDNPDRLALLFGSEKGGPSDLFEEASSASVSIPMMSQTESLNVSVSLGIALHERIDRNLAANR
Q: With B1 as the protein, how does the “stoichiometry N” value read?
A: The value was 2.

B2: Tsr N129A mutant (enzyme, S. cyaneus, UniProt P18644 1-269, looked up)
chain: B1 chain with N129A
Q: B2 was tested. Which “stoichiometry N” value did it give?
A: The value was 2.
